Binding signal (fold weaker than P1+P2) data for 1 sequence are collected here from publication PMC7337906.

The target of this series is T1, Tof1(613-728) minimal;Csm3(48-157) internal_change (Chaetomium thermophilum;Chaetomium thermophilum) (UniProt G0S825+Q2H3R6).
T1 sequence 1: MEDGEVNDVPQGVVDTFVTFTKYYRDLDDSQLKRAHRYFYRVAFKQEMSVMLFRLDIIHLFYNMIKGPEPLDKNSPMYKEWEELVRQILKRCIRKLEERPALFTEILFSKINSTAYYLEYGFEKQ
T1 sequence 2: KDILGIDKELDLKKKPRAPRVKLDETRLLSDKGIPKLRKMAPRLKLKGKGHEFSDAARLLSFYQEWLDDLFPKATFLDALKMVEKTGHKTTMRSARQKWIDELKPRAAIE
Put plainly: EMSA. The note with it: HBS-200 (20 mM HEPES pH 7.5, 200 mM NaCl, 1 mM TCEP) + 10% glycerol, 50 nM DNA, 30 min on ice; 6% polyacrylamide tris-glycine gel. For orientation: A gel shift assay detects complexes by their altered migration in electrophoresis.

For the sequence “GTAGTTTGTACTGGTGACGA (double strand) [dsDNA 20 bp]”, the binding signal (fold weaker than P1+P2) amounted to 2.
